Results published in patent US6191256A, “Recombinant factor VIII binding peptides” (Bayer Corporation, priority 1998, dated 2001).

Experiments:
rFVIII [1] = biological target: T1, rFVIII (Homo sapiens, UniProt P00451); assay: confirmatory binding assay in filtration plate format using 14C-rFVIII; settings: for Total dpm / 0.5M CaCl2 % total / 2% acetic acid % total / 2% acetic acid dpm / 0.5M CaCl2 dpm / beads % total / beads dpm: Table 3; for Total dpm / beads % total / beads dpm: 14C-rFVIII 20 nM; for 0.5M CaCl2 % total / 2% acetic acid % total / 2% acetic acid dpm / 0.5M CaCl2 dpm: 14C-rFVIII 20 nM in PPF, 5 mg beads; for 0.5M CaCl2 dpm: 3.0 × 10^15 DPM/mole, 5° C.; for beads % total / beads dpm: remaining on beads after washes
T1 sequence (P00451 20-2351): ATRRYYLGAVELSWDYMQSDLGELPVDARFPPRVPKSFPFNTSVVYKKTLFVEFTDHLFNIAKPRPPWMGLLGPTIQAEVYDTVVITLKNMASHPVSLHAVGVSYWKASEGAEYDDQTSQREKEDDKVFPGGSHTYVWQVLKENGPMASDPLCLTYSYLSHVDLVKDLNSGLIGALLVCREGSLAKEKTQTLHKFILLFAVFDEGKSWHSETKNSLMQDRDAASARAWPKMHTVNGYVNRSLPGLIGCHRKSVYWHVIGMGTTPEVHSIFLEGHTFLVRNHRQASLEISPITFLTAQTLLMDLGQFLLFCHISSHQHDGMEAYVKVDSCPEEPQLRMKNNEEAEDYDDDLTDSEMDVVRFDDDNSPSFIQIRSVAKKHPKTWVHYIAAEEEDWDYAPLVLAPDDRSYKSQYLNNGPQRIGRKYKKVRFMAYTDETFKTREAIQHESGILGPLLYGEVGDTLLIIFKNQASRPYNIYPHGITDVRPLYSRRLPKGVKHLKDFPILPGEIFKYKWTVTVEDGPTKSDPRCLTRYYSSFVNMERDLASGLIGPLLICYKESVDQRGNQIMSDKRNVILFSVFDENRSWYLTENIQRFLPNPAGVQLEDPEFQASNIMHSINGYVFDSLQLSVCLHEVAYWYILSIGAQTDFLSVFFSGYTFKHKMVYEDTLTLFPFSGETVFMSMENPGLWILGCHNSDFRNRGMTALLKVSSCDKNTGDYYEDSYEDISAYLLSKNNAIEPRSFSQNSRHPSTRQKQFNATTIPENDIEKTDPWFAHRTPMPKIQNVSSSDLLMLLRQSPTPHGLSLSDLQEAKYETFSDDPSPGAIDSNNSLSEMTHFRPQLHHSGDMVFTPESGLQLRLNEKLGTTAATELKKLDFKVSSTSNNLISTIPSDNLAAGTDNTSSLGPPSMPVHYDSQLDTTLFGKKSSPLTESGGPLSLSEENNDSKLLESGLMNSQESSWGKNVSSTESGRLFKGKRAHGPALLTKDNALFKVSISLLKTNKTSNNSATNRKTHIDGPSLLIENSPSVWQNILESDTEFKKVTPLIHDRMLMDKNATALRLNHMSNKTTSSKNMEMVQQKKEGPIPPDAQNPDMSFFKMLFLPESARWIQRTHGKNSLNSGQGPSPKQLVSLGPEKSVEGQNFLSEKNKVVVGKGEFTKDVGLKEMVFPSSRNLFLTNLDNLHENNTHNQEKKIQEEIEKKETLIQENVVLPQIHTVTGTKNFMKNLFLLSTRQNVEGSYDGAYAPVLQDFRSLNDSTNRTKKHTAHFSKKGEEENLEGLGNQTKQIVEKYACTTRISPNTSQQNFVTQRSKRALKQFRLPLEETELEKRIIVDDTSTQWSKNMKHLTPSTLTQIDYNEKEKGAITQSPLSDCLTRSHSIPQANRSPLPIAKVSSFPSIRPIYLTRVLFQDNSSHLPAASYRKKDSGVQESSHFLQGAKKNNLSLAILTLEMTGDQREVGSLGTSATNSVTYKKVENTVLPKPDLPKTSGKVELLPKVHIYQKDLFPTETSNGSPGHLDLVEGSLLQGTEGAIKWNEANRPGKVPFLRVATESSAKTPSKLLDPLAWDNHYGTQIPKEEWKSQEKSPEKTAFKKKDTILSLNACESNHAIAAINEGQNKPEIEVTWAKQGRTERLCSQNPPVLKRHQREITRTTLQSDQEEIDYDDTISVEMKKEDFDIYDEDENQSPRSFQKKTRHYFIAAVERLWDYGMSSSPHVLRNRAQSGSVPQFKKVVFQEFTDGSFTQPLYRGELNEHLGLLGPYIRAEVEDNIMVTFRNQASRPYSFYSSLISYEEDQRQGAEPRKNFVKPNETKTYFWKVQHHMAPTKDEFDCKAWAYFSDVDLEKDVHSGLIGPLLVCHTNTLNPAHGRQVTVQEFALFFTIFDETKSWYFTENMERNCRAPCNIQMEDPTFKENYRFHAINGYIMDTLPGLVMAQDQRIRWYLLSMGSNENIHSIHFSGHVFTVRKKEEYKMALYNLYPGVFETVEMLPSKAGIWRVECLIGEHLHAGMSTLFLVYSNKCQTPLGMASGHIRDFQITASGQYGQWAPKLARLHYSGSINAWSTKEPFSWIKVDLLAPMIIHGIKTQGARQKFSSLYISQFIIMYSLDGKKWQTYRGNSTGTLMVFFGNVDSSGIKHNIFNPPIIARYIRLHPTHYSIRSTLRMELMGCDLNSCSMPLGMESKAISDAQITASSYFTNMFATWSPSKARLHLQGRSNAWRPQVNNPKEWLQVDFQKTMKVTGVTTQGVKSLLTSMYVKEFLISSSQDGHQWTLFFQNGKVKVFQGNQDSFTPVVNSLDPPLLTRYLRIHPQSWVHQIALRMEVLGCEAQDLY
T1 sequence (P00451 1668-2351 limits assumed): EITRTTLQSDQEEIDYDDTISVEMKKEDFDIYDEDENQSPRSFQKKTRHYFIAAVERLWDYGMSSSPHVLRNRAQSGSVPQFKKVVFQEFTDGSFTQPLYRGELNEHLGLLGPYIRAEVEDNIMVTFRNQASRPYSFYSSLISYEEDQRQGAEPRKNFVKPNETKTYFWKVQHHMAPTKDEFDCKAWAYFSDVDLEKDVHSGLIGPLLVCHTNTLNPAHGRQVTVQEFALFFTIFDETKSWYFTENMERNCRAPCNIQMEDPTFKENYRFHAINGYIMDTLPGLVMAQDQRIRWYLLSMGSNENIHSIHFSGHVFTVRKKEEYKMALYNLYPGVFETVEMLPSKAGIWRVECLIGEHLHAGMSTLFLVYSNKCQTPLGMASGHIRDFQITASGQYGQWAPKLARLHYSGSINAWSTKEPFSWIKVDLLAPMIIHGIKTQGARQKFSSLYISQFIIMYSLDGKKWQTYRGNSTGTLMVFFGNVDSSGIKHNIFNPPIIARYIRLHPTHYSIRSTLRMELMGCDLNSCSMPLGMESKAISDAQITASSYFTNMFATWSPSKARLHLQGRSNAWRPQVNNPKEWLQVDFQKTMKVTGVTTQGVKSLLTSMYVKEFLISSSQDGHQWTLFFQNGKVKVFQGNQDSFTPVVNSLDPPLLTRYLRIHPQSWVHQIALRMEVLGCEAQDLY
Method: Confirmatory binding assays were performed in a filtration plate format using individual peptide sequences synthesized directly onto the TOYOPEARL AF amino 650 M resin, at a final substitution density of 0.1 mmole/g resin. A slurry of each individual peptide sequence was prepared using deionized water. A 100 μL volume of beads (corresponding to 5 mg) was loaded into each well of the filtration plate (MULTISCREEN Assay System, Millipore, Bedford, Mass.), in triplicate for each peptide sequence. Beads were washed with 20% ethanol and incubated overnight with equilibration buffer (20 mM imidazole, 10 mM
CaCl2, 0.105 M NaCl, pH 6.9). A 100 μL aliquot of ^14 C-rFVIII diluted in neat PPF to a final concentration of 20-30 nM was loaded into each well and incubated for 1 hour at 5° C. Filtrate (unbound ^14 C-rFVIII) was collected into a microtiter plate and transferred to liquid scintillation vials for dpm counting. Beads were washed sequentially with: 100 μL of equilibration buffer for 15 minutes, 200 μL of 0.5 M CaCl2 (in equilibration buffer), 200 μL of 1.0 M CaCl2 (in equilibration buffer), and 200 uL of 2% by volume glacial acetic acid in water, for 1 hour each at 5° C. Scintillation counting on the unbound ^14 C-rFVIII (plus equilibration buffer wash), salt and acid washes, as well as on the beads was then performed and the overall mass balance calculated.
Beads presenting the appropriate peptide sequence on the surface were placed in the filtration plate wells and incubated sequentially with equilibration buffer, ^14 C-rFVIII in PPF, equilibration buffer, 0.5 M CaCl2 wash, 1.0 M CaCl2 wash and 2% acetic acid wash. After each incubation, filtrate was collected in microtiter plates, and dpm counted on each
In Table 3, the ^14 C-rFVIII was loaded at 20 nM (in PPF) and the radiolabeling yield was at 3.0×10^15 dpm/mole. In Table 4, the ^14 C-rFVIII was loaded at 30 nM (in PPF) and the radiolabeling yield was at 5.0×10^15 dpm/mole.

rFVIII [2] = biological target: T1, rFVIII; assay: column format binding assay, rFVIII mass per fraction by sandwich capture ELISA for the light chain; settings: for 0.5M CaCl2 ng / 0.5M CaCl2 % total / 2% acetic acid % total / 2% acetic acid ng / Flow through % total / Total ng / Flow through ng: Table 5; for Flow through ng: 10,000 ng rFVIII in 1:10 PPF injected, 5° C.
Method: Immunoassay on rFVIII using a sandwich capture ELISA for the light chain and activity assay using a chromogenic substrate (COATEST Factor VIII kit from diaPharma, Franklin, Ohio) were performed on a BIOMEK® automated liquid handling system from Beckman Instruments (Brea, Calif.). The monoclonal antibody for rFVIII light chain (known as C7F7), the ELISA assay standard (lot A70K019), and the control for the activity assay (lot A70A001 @ 140 IU/mL) were from the Bayer Corporation (Berkeley, Calif.). The standard for the activity assay was at 11.2 IU/mL (Bayer, Clayton, N.C.), calibrated against the MEGA 1 standard, which is a working standard used by American manufacturers for measuring factor VIII activity (21).
Additional confirmatory binding assay and performance of the discovered binding peptides in terms of total rFVIII and activity recovery was performed in a column chromatographic format on a microbore HPLC. The resins were packed into 0.4×5 cm columns (Thomson, Springfield, Va.) and tested on the MICHROM HPLC system (Michrom BioResources, Auburn, Calif.). The elution program for the trials utilized the following method. The column was pre-equilibrated with equilibration buffer (as above). A 1 mL aliquot of 1:10 PPF followed by 1 mL of rFVIII (10,000 ng) in 1:10 PPF were injected and allowed sufficient time to flow through the column using equilibration buffer. The column was then washed with step elutions of 0.5 M and 1.0 M CaCl2 in equilibration buffer. The column was exposed to equilibration buffer. Remaining protein was eluted with 2% by volume glacial acetic acid in water. Columns were kept at 5° C. during the chromatographic runs. For each 1 mL injection (equilibration buffer, 1:10 PPF and 10,000 ng rFVIII in 1:10 PPF), the chromatographic cycle was run for 45 minutes (injection, flow through, 0.5 M CaCl2, 1.0 M CaCl2, equilibration buffer, 2% acetic acid, equilibration buffer).
A Gilson FC204 fraction collector at the HPLC outlet collected individual eluates for further analysis. Each collection tube had 100 μL hSA added to it to stabilize the rFVIII. Fractions collected from the 2% acetic acid eluates were neutralized with 2 M Tris, pH 10.5 to bring the pH to neutrality. The fractions were analyzed for total protein by the integration of the absorbance at 280 nm, for rFVIII by immunoassay (sandwich capture ELISA), and for rFVIII activity by a chromogenic substrate assay.
Tables 5 and 6 present the results from the additional confirmatory binding assays using the column format. The chromatography method was run by injecting the samples at a flow rate of 865 μL/min (413 cm/hr). In order to provide a 10 minute residence time of sample in the column the flow was decreased to 17 μL/min (10 cm/hr) upon injection.
Following the incubation, the flow was set at 865 μL/min (413 cm/hr) for the step clutions of 0.5 M CaCl2, 1.0 M CaCl2, and 2% acetic acid. Results are expressed in terms of the total mass of rFVIII in each fraction, as determined by the sandwich capture ELISA assay for the rFVIII light chain. […] A control using a non-binding peptide sequence (IGF) is also shown for comparison--in this case, 95% of the rFVIII loaded to the column was collected in the flow through fraction. Additional controls with no

3 (YVQGLW) [compound 3]
Total dpm (rFVIII [1]): 2020 dpm | 0.5M CaCl2 % total (rFVIII [1]): 74% | 2% acetic acid % total (rFVIII [1]): 19% | 2% acetic acid dpm (rFVIII [1]): 379 dpm | 0.5M CaCl2 dpm (rFVIII [1]): 1502 dpm | beads % total (rFVIII [1]): 7% | beads dpm (rFVIII [1]): 140 dpm

17 (FYRFWN) [compound 17]
Total dpm (rFVIII [1]): 3009 dpm | 0.5M CaCl2 % total (rFVIII [1]): 17% | 2% acetic acid % total (rFVIII [1]): 72% | 2% acetic acid dpm (rFVIII [1]): 2156 dpm | 0.5M CaCl2 dpm (rFVIII [1]): 498 dpm | beads % total (rFVIII [1]): 12% | beads dpm (rFVIII [1]): 355 dpm | 0.5M CaCl2 ng (rFVIII [2]): 1622 ng | 0.5M CaCl2 % total (rFVIII [2]): 37% | 2% acetic acid % total (rFVIII [2]): 54% | 2% acetic acid ng (rFVIII [2]): 2336 ng | Flow through % total (rFVIII [2]): 3% | Total ng (rFVIII [2]): 4348 ng | Flow through ng (rFVIII [2]): 127 ng

IGF [reference compound]
Total dpm (rFVIII [1]): 274 dpm | 0.5M CaCl2 % total (rFVIII [1]): 80% | 2% acetic acid % total (rFVIII [1]): 15% | 2% acetic acid dpm (rFVIII [1]): 41 dpm | 0.5M CaCl2 dpm (rFVIII [1]): 219 dpm | beads % total (rFVIII [1]): 5% | beads dpm (rFVIII [1]): 14 dpm | binding of rFVIII in words (rFVIII [1]; plate format): non binder | 0.5M CaCl2 ng (rFVIII [2]): 201 ng | 0.5M CaCl2 % total (rFVIII [2]): 4% | 2% acetic acid % total (rFVIII [2]): 0% | 2% acetic acid ng (rFVIII [2]): 10 ng | Flow through % total (rFVIII [2]): 95% | Total ng (rFVIII [2]): 4962 ng | Flow through ng (rFVIII [2]): 4719 ng

18 (WLWSHN) [compound 18]
Total dpm (rFVIII [1]): 2608 dpm | 0.5M CaCl2 % total (rFVIII [1]): 25% | 2% acetic acid % total (rFVIII [1]): 67% | 2% acetic acid dpm (rFVIII [1]): 1752 dpm | 0.5M CaCl2 dpm (rFVIII [1]): 651 dpm | beads % total (rFVIII [1]): 8% | beads dpm (rFVIII [1]): 205 dpm | 0.5M CaCl2 ng (rFVIII [2]): 2362 ng | 0.5M CaCl2 % total (rFVIII [2]): 56% | 2% acetic acid % total (rFVIII [2]): 18% | 2% acetic acid ng (rFVIII [2]): 760 ng | Flow through % total (rFVIII [2]): 0% | Total ng (rFVIII [2]): 4200 ng | Flow through ng (rFVIII [2]): 8 ng

4 (FRPHWA) [compound 4]
Total dpm (rFVIII [1]): 3744 dpm | 0.5M CaCl2 % total (rFVIII [1]): 78% | 2% acetic acid % total (rFVIII [1]): 17% | 2% acetic acid dpm (rFVIII [1]): 631 dpm | 0.5M CaCl2 dpm (rFVIII [1]): 2905 dpm | beads % total (rFVIII [1]): 6% | beads dpm (rFVIII [1]): 209 dpm | 0.5M CaCl2 ng (rFVIII [2]): 5510 ng | 0.5M CaCl2 % total (rFVIII [2]): 90% | 2% acetic acid % total (rFVIII [2]): 3% | 2% acetic acid ng (rFVIII [2]): 160 ng | Flow through % total (rFVIII [2]): 4% | Total ng (rFVIII [2]): 6123 ng | Flow through ng (rFVIII [2]): 225 ng | ELISA results % total (rFVIII [2]; Table 9, 0.5M CaCl2 fraction): 90%
